Experimental data taken from patent US20200115464A1.

Experiments:
[1] = biological target: FcR on U937 cells; assay: cell-based or functional assay
[2] = biological target: human CD3 on Jurkat cells (CD3+, CD20- human T-cell line) (human) (UniProt P07766); assay: FACS, serially diluted antibody on Jurkat cells (CD3+, CD20-)
[3] = biological target: cynomolgus CD3 on T cells of cynomolgus PBMCs (mkT cells) (cynomolgus monkey); assay: FACS, serially diluted antibody on cynomolgus PBMC T cells (mkT cells)
[4] = biological target: His-tagged cynomolgus FcγRIIA (cynomolgus monkey); assay: SPR steady-state, His-captured FcγR, antibody injected, 25 C
[5] = biological target: His-tagged cynomolgus FcγRIIB (cynomolgus monkey); assay: as above
[6] = biological target: His-tagged cynomolgus FcγRIIIA (cynomolgus monkey) (UniProt Q8SPW2); assay: as above
His-tagged cynomolgus FcγRIIIA (cynomolgus monkey), sequence (Q8SPW2 17-208 limits assumed): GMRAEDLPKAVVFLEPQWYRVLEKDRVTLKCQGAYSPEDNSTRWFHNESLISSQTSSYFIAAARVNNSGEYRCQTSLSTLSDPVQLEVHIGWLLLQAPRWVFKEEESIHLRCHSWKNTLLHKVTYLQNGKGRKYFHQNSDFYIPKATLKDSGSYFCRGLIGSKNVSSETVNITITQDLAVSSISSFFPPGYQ

[7] = biological target: His-tagged human FcγRIIA (H131) (human) (UniProt P12318); assay: as above
His-tagged human FcγRIIA (H131) (human), sequence (P12318 36-218 limits assumed): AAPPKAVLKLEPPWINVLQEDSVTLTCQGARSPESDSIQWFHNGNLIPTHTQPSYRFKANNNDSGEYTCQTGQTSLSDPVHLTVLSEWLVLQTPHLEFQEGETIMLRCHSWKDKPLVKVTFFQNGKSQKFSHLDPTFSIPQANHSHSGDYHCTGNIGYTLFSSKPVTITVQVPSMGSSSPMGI

[8] = biological target: His-tagged human FcγRIIA (R131) (human) (UniProt P12318); assay: as above
His-tagged human FcγRIIA (R131) (human), sequence (P12318 36-218 H167R limits assumed): as the sequence (P12318 36-218 limits assumed) above, with H132R counted along it

[9] = biological target: His-tagged human FcγRIIIA (F176) (human) (UniProt P08637); assay: as above
His-tagged human FcγRIIIA (F176) (human), sequence (P08637 17-208 limits assumed): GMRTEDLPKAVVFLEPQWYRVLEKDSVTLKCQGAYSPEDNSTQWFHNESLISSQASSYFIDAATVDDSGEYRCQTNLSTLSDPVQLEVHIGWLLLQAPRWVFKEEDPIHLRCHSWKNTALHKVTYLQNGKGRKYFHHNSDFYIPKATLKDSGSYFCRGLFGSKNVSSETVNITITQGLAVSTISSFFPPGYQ

[10] = biological target: His-tagged human FcγRIIIA (V176) (human) (UniProt P08637); assay: as above
His-tagged human FcγRIIIA (V176) (human), sequence (P08637 17-208 F176V limits assumed): as the sequence (P08637 17-208 limits assumed) above, with F160V counted along it

[11] = biological target: His-tagged human FcγRIIIB (human) (UniProt O75015); assay: as above
His-tagged human FcγRIIIB (human), sequence (O75015 17-200 limits assumed): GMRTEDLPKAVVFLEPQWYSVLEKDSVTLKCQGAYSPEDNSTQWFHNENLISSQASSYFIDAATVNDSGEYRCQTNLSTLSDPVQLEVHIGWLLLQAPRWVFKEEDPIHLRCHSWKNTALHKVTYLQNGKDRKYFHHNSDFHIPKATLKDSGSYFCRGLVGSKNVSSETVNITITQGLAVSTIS

[12] = biological target: His-tagged human FcγRI (human) (UniProt P12314); assay: SPR (Biacore T200), His-captured human FcγRI, antibody injected, 25 C
His-tagged human FcγRI (human), sequence (P12314 16-288 limits assumed): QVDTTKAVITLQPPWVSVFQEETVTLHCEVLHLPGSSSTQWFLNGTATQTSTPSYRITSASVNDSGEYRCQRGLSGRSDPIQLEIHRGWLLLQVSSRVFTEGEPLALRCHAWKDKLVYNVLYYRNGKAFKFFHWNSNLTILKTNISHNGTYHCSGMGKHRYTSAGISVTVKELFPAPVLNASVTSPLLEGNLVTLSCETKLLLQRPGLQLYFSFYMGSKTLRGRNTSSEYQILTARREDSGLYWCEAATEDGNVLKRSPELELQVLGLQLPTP

[13] = biological target: His-tagged human FcγRIIB (human) (UniProt P31994); assay: SPR steady-state, His-captured FcγR, antibody injected, 25 C
His-tagged human FcγRIIB (human), sequence (P31994 46-217 limits assumed): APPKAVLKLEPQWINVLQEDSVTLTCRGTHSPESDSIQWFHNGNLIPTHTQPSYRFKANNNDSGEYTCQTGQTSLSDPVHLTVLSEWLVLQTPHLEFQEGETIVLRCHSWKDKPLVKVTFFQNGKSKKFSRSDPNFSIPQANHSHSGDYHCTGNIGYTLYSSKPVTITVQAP

| EC50 [2] [nM] | EC50 [3] [nM] | Kd [4] [nM] | Kd [5] [nM] | Kd [6] [nM] | Kd [7] [nM] | Kd [8] [nM] | Kd [9] [nM] | Kd [10] [nM] | Kd [11] [nM] | Kd [12] [nM] | T1/2 [12] [min] | koff [12] [s⁻¹] | kon [12] [M⁻¹ s⁻¹] | Kd [13] [nM] | Substance | U937 Cytotoxicity Human T-cells [M] (EC50, calcein release) [1] |
| --- | --- | --- | --- | --- | --- | --- | --- | --- | --- | --- | --- | --- | --- | --- | --- | --- |
| 0.196 | – | – | – | – | – | – | – | – | – | – | – | – | – | – | Control Antibody 1: monoclonal antibody OKT-3 against human T-cell surface antigens | 3.04e-12 |
| – | 0.0703 | – | – | – | – | – | – | – | – | – | – | – | – | – | Control Antibody 2: antibody SP34 reactive against the epsilon chain of the T3 complex on human T lymphocyte cells | – |
| – | – | 42 | 42 | 6 | 11 | 20 | 13 | 15 | 23 | 4.3 | 15 | 0.000748 | 174000 | – | wt-IgG1 Isotype Control (antibody) | – |
| – | – | 193 | 96 | 58 | 120 | 100 | 260 | – | – | 13.9 | 5 | – | – | 98 | wt-IgG4 CPPC Isotype Control (antibody) | – |
